Results taken from US20160274109A1.

Molecular target: Rap1B (Rap1B portion of the EPAC2-GFP-RAP1B sensor) (Homo sapiens (Human)) (UniProt P61224)
Experiment: cell-based or functional assay

Rap1B (Rap1B portion of the EPAC2-GFP-RAP1B sensor) (Homo sapiens (Human)), sequence (P61224 other isoform, or with tags, fused parts or gaps limits assumed): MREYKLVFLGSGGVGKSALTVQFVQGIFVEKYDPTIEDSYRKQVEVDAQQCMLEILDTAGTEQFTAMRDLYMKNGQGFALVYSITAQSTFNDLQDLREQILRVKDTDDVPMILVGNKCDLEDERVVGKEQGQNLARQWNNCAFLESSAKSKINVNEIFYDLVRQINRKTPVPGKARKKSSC

Epac2 (Epac2 portion of the EPAC2-GFP-RAP1B sensor) (from UniProt Q8WZA2 1-1011) (enzyme)
change in fluorescence of the tethered Epac2-cpEGFP-Rap1B sensor in response to drug (isoproterenol), HEK 293 cells: 25%

Epac2 (Epac2 portion of the EPAC2-GFP-RAP1B sensor) (from UniProt Q8WZA2 1-1011)
Relative Change in Fluorescence in Response to Isoproternol (EPAC2gfpRAP1B sensor): 26%
